6 molecules from PMC3479211 can be followed below.

Data set [1] has as its target wild-type His-p32 (mouse) (UniProt O35658). In words: SEC.
The target in data set [2] is mutant His-p32 (K89A/K93A) (mouse) (UniProt O35658). As to the kind of experiment: SEC.
Data set [3] deals with T1, p32 (gC1qR) wild-type (Mus musculus, UniProt Q8R5L1 72-279).
T1 sequence: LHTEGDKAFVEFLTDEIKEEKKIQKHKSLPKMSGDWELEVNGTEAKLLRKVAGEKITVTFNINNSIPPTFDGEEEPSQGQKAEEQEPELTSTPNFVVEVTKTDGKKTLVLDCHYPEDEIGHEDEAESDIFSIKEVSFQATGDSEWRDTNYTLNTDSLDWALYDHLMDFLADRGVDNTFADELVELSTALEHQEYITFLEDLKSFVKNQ
As to the kind of experiment: EMSA. On the technique in general: In EMSA bound probe runs differently from free probe, usually more slowly.

Data set [4] has as its target T1, p32 (gC1qR) wild-type. As to the kind of experiment: EMSA. This is another data set of the same source.
For data set [5], the target named is T1, p32 (gC1qR) wild-type. In words: competition.
In data set [6] the target is T1, p32 (gC1qR) wild-type. In words: competition. The source holds these as a separate data set.

What is called stoichiometry N is the number of molecules, sites or subunits per partner or assembly. By Kd is commonly meant the constant that tells how readily two partners part at equilibrium. Read a low Kd as tighter binding.

“wild-type His-p32 (from UniProt O35658 71-278) (natural protein)” showed a stoichiometry N in data set [1] of 3.

As to “mutant His-p32 (K89A/K93A) (from UniProt O35658 71-278) (natural protein)”, the stoichiometry N in data set [2] came out at 3.

Turning to AAAAAAAAAAAAAAAAAAAAAA (ssRNA) [22-mer poly(A) RNA], the Kd with p32 (gC1qR) wild-type [3] was ~6 µM.

GUUUACGGUGCUA (ssRNA) [14-mer RNA (random)]: the binding result with p32 (gC1qR) wild-type [4] is listed as “binds”.

On to GGGAGAAAAACAAAACAAAACAAAACUAGCACCGUAAAGC (ssRNA) [40-mer RNA (random)], for which, in the data set with p32 (gC1qR) wild-type [5], the binding result is on record as “binds”.

On to AAAAAAAAAAAAAAAAAAAAAA (ssDNA) [22-mer poly(A) DNA], for which the binding result in the data set with p32 (gC1qR) wild-type [6] is given as “no binding”.
